Where a chain is given by its changes, count along the chain named.
T1: human SEMA4D, full length, on CHO-K1 cells (CHO-K1 hSEMA4D) (human, UniProt Q92854 22-862)
T1 construct: whole, on cells; also called human SEMA4D recombinant cells
T1 sequence (looked up): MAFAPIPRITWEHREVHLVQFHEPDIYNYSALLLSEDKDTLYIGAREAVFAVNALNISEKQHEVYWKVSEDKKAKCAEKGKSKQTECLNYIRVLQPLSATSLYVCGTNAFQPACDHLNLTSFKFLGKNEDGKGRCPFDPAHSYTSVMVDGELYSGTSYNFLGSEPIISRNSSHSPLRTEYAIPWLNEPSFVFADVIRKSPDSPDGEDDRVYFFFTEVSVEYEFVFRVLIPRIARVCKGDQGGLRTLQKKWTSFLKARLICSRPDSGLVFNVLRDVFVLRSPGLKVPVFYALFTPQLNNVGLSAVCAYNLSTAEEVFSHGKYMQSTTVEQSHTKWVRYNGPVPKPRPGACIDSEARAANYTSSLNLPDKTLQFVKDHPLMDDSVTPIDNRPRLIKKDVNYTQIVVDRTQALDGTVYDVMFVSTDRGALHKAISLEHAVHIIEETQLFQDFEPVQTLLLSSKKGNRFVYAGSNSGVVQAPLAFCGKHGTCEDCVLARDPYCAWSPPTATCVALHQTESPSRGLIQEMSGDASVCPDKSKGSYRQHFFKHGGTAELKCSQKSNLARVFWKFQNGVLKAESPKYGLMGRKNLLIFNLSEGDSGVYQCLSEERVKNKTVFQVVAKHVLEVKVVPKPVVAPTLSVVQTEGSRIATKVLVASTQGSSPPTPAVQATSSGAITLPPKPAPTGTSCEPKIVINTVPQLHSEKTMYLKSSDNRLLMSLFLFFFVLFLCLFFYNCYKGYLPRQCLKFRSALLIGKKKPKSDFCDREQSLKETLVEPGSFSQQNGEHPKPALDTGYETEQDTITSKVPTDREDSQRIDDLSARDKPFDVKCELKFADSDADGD

T2: hSEMA4D ECD-His (His-tagged human SEMA4D protein extracellular domain, Met22-Arg734) (human, UniProt Q92854 22-734)
T2 construct: Expressed in CHO-S cells, purified on Ni column; also called protein immunogen; immunogen A; not shown: His tag of the pCP vector
T2 sequence: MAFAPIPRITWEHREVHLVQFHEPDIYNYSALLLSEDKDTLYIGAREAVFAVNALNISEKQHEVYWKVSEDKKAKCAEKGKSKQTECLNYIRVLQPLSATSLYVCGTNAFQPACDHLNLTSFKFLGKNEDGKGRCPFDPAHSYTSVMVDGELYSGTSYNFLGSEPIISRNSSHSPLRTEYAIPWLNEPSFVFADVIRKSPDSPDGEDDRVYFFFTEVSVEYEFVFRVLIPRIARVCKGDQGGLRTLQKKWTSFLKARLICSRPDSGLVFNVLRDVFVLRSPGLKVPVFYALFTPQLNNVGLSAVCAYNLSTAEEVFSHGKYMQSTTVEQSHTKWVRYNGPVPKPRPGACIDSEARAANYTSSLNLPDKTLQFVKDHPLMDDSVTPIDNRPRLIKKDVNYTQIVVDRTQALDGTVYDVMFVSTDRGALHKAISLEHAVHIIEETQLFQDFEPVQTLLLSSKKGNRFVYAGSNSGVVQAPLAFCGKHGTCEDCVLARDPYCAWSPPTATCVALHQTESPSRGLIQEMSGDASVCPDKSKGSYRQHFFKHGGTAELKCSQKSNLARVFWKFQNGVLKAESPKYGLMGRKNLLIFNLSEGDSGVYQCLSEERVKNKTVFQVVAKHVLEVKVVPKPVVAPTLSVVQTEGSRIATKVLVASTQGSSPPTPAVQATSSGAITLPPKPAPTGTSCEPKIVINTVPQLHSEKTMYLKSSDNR

B1: 32C8F10 (antibody, V domains shown)
VH: EVQLQQSGAELVRPGASVKLSCTASGFNIKDEYIHWVKQRPEQGLEWIGWIDPANGHTEYASRFQAKATITADTSSNTAYLQLSSLTSEDTAVYYCTTGDYDGFAYWGQGTLVTVST
VL: QIVLTQSPAIMSASPGEKVTISCSARSSVSYMYWYQQKPGSSPKPWIYRTSNLASGVPARFSGSGSGTSYSLTISSMEAEDAATYYCQHYHTYPYTFGGGTKLEIK
notes: Mouse monoclonal antibody purified from hybridoma supernatant on protein A
B2: 31C11G2 (antibody, V domains shown)
VH: B1 VH with A105V
VL: B1 VL with S22F
notes: as for B1
B3: 31G10C5 (antibody, V domains shown)
VH: B1 VH with E32D, T58I, R63N, A105T
VL: B1 VL
notes: as for B1
B4: 37C4F7 (antibody, V domains shown)
VH: EFQLQQSGPEVVKPGASVKISCKASGYSFTDYNMNWMKQSKGKSLEWIGVINPNYGTTTYNQNFKGKATLTVDQSSSTAYMQLNSLTSEDSAVYYCARDMYYVYAYYTMDYWGQGTSVTVSS
VL: DVVMTQTPLSLPVSLGDQASISCRSSQSLVHSNGHTYLHWYLQRPGQSPTLLIYKVSNRFSGVPDRFSGSGSGTDFTLKISRVEAEDLGVYFCSQGTHVPWTFGGGTKLEIK
notes: as for B1
B5: 38H2E3 (antibody, V domains shown)
VH: B4 VH with N52S, N54D, G66D, R98K, Q114H
VL: B4 VL with F67V, W101R
notes: as for B1
B6: 37F11F9 (antibody, V domains shown)
VH: EVQLQQSGPVLVKPGASVKMSCKASGYTFTDYYMNWVKQSHGKSLEWIGLINPYSGGSTFNQKFKAKATLTVDKSSSSAYMDLNSLTSEDSAVYYCARVGDGYYGVTHGMDYWGQGTSVTVSS
VL: DIVMTPSQKFMSTTVGDRVSITCKASQNVGTAVAWYQQKPGQSPTILIYSASNRYTGVPDRFTGSGSGTDFTLTISNMKSEDLADYFCQQYYIYPFTFAAGTKLELK
notes: as for B1
B7: 42B7G2 (antibody, V domains shown)
VH: QVQLQQSGAELARPGASVKLSCKASGYTFTDYGISWVKQRTGQGLEWIGEIYLRNDNSYYNEKFKGKATLTADKSSNTAYMELRSLTSEDSAVYFCARWGDHGNNYEDAMDYWGQGTSVTVSS
VL: DIVLTQSPASLAMSLGKRATISCRASESVSIIGSNLIHWYQQKPGQPPKLLIYHASNLETGVPARFSGSGSRTDFTLTIDPVEEDDVAIYYCLQSRKVPYTFGGGTKLEIK
notes: as for B1

target: T3, monkey SEMA4D, full length, on CHO-K1 cells (CHO-K1 cSEMA4D) (monkey); experiment: FACS, CHO-K1 cSEMA4D cells; Ab 2.67 nM
T3 construct: whole, on cells; also called monkey SEMA4D recombinant cells
Method: After the cells were counted, they were diluted with PBS to 2×10⁶ cells per milliliter. After washing, 100 μL of diluted and purified leading antibodies was added to each well and the plate was incubated for 1 hour on ice. […] Cells were washed 2 times by centrifugation with FACS buffer. The cells were suspended with 200 μL of FACS buffer, FACS (FACS Verse, purchased from BD) was used to detect and analyze the results.

Binder | MFI
B1 | 4920
B2 | 4420
B3 | 4540
B4 | 1940
B5 | 1750
B6 | 2170
B7 | 2640

target: T1, human SEMA4D, full length, on CHO-K1 …; experiment: FACS, CHO-K1 hSEMA4D cells; Ab 0.107 nM
Method: The medium was aspirated, the cells were washed once with PBS buffer (purchased from Invitrogen), and then treated with cell dissociation fluid (TrypLE™ Express Enzyme, purchased from Life technology), and the cells were collected. After the cells counted, the cells were washed once with PBS phosphate buffer, and diluted to 3×10⁶ cells per milliliter, and added to the 96-well FACS reaction plate as 100 μL per well. 2% (w/w) fetal calf serum was added to PBS phosphate buffer as FACS buffer, with which the cells were washed once by centrifugation at 2000 rpm 4° C. 100 μL of diluted and purified leading antibodies was added to each well and the plate was incubated for 1 hour on ice. […] Cells were washed 2 times by centrifugation with FACS buffer. The cells were suspended with 200 μL of FACS buffer, and FACS (FACS Verse, purchased from BD) was used to detect and analyze the results.

Binder | MFI
B1 | 832
B2 | 906
B3 | 855
B4 | 210
B5 | 215
B6 | 308
B7 | 598

target: T2, hSEMA4D ECD-His (His-tagged human …); experiment: ELISA, coated hSEMA4D ECD-His; Ab 1.33 nM
Method: First, hSEMA4D ECD-His was diluted with PBS to a final concentration of 1.0 μg/mL, and then was added to a 96-well ELISA plate, 100 μL per well, sealed with plastic film and incubated overnight at 4° C. On the next day, the plate was washed with a plate washing solution, that is, PBS buffer containing 0.05% (v/v) Tween20, for 4 times, and added with blocking solution, that is, PBS buffer containing 0.05% (v/v) Tween20 and 2% (w/w) BSA, blocked at 37° C. for 1 hour. The blocking solution was poured out and the plate was washed 4 times with the plate washing solution. 100 μL of the purified leading antibodies obtained in Examples 1 and 2 was added to each well. After incubation at 37° C. for 1 hour, the plate was washed 4 times with a plate washing solution. 100 μL of horseradish peroxidase (HRP) labeled secondary antibody (purchased from Sigma) was added at a dilution of 1:10000 to each well, and the plate was incubated at 37° C. for 1 hour, and washed 4 times with a plate washing solution. 100 μL TMB substrate was added to each well, and the plate was incubated at room temperature for 5 minutes, and added with 100 μL stop solution (1.0N HCl) to each well. A microplate reader (SpectraMax M5e, purchased from Molecular Device) was used to read the A450 nm value. […] Wherein, the data in the table was the OD450 nm value.

Binder | OD450 nm
B1 | 1.87
B2 | 1.67
B3 | 1.52
B4 | 0.91
B5 | 1.1
B6 | 1.39
B7 | 1.87
